Results reported in patent US20150064134A1.

Key:
Assay in all cases: cell-based or functional assay
[1] = molecular target: CDK9/cyclin T1(h) (human) (UniProt P50750)
HIPK1(h) (human) = HIPK1(h) (human) (UniProt Q86Z02)
[2] = molecular target: IGF-1R(h), activated (human) (UniProt P08069)
IRAK4(h) (human) = molecular target: T1, IRAK4(h) (human) (UniProt Q9NWZ3)
T1 sequence (looked up): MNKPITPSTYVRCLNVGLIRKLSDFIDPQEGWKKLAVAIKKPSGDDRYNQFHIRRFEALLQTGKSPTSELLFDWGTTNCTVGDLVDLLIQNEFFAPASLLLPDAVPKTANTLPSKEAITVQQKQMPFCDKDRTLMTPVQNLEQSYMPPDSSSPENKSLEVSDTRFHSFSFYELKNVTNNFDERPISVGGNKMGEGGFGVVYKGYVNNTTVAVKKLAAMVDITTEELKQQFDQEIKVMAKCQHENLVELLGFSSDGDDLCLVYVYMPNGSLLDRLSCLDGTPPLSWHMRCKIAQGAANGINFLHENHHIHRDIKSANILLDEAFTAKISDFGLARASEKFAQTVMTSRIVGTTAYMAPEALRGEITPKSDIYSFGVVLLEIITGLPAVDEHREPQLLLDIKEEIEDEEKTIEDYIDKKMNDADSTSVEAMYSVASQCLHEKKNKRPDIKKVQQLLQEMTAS

MSK1(h) (human) = MSK1(h) (human) (UniProt O75582)
Mnk2(h) (human) = Mnk2(h) (human) (UniProt Q9HBH9)
MuSK(h) (human) = MuSK(h) (human) (UniProt O15146)
NEK6(h) (human) = NEK6(h) (human) (UniProt Q9HC98)
PKD2(h) (human) = molecular target: T2, PKD2(h) (human) (UniProt Q9BZL6)
T2 sequence (looked up): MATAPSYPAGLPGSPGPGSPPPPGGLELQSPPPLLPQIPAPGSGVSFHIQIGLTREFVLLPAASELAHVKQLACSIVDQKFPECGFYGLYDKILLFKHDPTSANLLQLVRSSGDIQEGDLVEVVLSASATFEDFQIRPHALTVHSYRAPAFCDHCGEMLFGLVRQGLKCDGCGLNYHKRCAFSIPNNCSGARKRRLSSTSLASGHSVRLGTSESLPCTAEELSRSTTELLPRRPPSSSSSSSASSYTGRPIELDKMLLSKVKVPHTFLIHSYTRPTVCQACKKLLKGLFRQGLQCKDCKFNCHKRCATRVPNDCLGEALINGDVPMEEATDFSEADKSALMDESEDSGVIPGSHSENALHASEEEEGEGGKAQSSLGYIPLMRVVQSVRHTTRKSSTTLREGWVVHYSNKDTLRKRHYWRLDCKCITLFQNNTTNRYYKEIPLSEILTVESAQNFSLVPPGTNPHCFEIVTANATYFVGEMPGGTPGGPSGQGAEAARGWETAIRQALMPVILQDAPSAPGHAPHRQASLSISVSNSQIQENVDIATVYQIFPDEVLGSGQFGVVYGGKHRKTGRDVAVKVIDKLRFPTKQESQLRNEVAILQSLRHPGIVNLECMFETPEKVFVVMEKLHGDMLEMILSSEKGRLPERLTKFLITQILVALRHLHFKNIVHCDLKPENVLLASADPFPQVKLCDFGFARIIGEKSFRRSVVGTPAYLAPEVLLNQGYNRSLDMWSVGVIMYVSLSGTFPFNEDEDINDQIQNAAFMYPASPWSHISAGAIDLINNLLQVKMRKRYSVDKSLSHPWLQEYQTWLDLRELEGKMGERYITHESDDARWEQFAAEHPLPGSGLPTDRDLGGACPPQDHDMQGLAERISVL

PRK2(h) (human) = PRK2(h) (human) (UniProt Q16513)
SGK(h) (human) = SGK(h) (human) (UniProt O00141)
Sequence of SGK(h) (human) (O00141 60-431 limits assumed): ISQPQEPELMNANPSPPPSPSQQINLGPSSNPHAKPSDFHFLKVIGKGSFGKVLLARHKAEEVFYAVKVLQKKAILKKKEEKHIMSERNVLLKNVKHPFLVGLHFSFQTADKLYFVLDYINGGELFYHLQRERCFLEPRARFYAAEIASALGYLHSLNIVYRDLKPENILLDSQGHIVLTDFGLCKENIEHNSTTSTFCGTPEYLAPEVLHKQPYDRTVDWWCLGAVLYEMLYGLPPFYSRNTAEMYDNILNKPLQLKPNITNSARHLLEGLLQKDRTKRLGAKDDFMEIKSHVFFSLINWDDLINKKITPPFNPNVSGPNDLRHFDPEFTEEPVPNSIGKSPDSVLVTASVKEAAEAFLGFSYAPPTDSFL

TAO1(h) (human) = molecular target: T3, TAO1(h) (human) (UniProt Q7L7X3)
T3 sequence (looked up): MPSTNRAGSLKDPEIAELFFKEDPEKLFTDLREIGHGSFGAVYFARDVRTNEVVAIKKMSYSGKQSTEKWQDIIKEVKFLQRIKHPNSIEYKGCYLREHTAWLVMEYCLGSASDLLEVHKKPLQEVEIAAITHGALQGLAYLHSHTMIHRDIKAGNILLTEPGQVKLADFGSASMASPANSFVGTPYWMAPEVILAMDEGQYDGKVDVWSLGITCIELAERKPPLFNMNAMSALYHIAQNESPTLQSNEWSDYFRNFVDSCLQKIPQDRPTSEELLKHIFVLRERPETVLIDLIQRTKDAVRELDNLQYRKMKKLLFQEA

TSSK2(h) (human) = molecular target: T4, TSSK2(h) (human) (UniProt Q96PF2)
T4 sequence (looked up): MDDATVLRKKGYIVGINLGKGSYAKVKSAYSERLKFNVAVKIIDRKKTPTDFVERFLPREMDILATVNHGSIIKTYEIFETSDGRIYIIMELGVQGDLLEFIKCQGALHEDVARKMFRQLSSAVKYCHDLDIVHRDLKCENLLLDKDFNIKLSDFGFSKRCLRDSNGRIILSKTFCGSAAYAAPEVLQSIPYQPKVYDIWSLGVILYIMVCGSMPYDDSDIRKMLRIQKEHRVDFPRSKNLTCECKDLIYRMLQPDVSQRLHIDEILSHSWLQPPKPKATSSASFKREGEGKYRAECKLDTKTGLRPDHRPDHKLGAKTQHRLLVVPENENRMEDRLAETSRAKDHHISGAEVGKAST

TrkB (h) (human) = TrkB (h) (human) (UniProt Q16620)

Sequence of IGF-1R(h), activated (human) (P08069 959-1367 limits assumed): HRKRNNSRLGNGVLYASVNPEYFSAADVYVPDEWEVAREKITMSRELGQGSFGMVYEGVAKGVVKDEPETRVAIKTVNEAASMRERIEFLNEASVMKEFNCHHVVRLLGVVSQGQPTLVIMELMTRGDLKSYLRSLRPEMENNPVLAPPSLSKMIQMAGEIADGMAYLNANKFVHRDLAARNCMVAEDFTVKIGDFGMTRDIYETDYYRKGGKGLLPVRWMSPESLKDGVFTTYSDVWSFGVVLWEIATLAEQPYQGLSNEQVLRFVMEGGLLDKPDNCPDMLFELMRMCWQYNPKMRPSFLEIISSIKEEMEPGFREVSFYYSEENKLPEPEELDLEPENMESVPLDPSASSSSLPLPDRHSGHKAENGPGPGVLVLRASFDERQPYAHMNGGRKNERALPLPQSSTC

% activity at 100 µM [1]	% activity at 100 µM (HIPK1(h) (human))	% activity at 100 µM [2]	% activity at 100 µM (IRAK4(h) (human))	% activity at 100 µM (MSK1(h) (human))	% activity at 100 µM (Mnk2(h) (human))	% activity at 100 µM (MuSK(h) (human))	% activity at 100 µM (NEK6(h) (human))	% activity at 100 µM (PKD2(h) (human))	% activity at 100 µM (PRK2(h) (human))	% activity at 100 µM (SGK(h) (human))	% activity at 100 µM (TAO1(h) (human))	% activity at 100 µM (TSSK2(h) (human))	% activity at 100 µM (TrkB (h) (human))	Substance
235%	91%	77%	59%	28%	86%	93%	85%	25%	27%	54%	73%	94%	8%	MMI-0400 (peptide)
6%	47%	45%	3%	8%	6%	27%	49%	10%	7%	2%	24%	92%	12%	MMI-0500 (peptide)
91%	74%	80%	59%	32%	89%	93%	82%	33%	33%	48%	82%	98%	5%	MMI-0300 (peptide)
